In US10941182 (Amgen, dated 2021):
Starred links: 1 amine or outer side, 2 acyl side, 3 side chain; linkers in the order of their positions; H or OH if unused. Non-standard residues stand in square brackets, D forms with d. *: point of attachment. Bh4ClF = β-4-chloro-L-homophenylalanine, O=C(C[C@H](Cc1ccc(Cl)cc1)N[*:1])[*:2]; AC4Abu = α-carboxy-4-aminobutyric acid, O=C(C(CCN[*:1])C(=O)[*:3])[*:2]; Oic = O=C(O)[C@@H]1C[C@@H]2CCCC[C@@H]2N1; Phe(4-Cl) = N[C@@H](Cc1ccc(Cl)cc1)C(=O)O; γGlu = O=C(O)[C@H](CCC(=O)[*:2])N[*:1]; 1Nal = N[C@@H](Cc1cccc2ccccc12)C(=O)O; 2Nal = N[C@@H](Cc1ccc2ccccc2c1)C(=O)O; Gly(cPent) = N[C@H](C(=O)O)C1CCCC1; Tridecanoyl = CCCCCCCCCCCCC(=O)*; hArg = N=C(N)NCCCC[C@H](N)C(=O)O; Cha = N[C@@H](CC1CCCCC1)C(=O)O; Aic = NC1(C(=O)O)Cc2ccccc2C1; Tle = CC(C)(C)[C@H](N)C(=O)O; Nle = CCCC[C@H](N)C(=O)O; AEEA = NCCOCCOCC(=O)O

T1: rat APJ receptor (rat, UniProt Q9JHG3 1-377)
T1 sequence (looked up): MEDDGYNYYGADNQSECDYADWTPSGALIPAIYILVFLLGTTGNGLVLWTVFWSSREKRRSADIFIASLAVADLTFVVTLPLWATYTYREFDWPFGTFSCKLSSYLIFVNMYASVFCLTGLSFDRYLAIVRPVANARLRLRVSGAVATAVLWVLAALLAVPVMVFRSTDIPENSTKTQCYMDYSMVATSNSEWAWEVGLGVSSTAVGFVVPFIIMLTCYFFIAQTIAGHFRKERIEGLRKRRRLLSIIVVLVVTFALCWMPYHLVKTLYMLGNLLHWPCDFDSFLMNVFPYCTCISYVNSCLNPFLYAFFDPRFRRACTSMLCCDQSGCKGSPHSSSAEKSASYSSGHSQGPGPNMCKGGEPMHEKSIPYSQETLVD

T2: human APJ receptor (human, UniProt P35414 1-380)
T2 sequence (looked up): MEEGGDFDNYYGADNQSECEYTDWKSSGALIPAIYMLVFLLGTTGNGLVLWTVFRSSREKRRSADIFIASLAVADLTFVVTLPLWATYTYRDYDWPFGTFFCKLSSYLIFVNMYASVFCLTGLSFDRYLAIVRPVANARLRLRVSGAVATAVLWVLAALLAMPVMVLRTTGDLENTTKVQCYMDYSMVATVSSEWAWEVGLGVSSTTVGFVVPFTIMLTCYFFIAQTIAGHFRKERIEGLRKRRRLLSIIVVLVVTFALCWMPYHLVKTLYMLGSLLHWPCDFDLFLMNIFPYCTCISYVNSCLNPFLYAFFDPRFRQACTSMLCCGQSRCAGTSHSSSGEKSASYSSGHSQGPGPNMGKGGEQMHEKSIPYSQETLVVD


Key:
rat APJ receptor = biological target: T1, rat APJ receptor; assay: cell-based or functional assay
human APJ receptor = biological target: T2, human APJ receptor; assay: cell-based or functional assay

EC50 Rat APJ Receptor (GTPγS assay) (rat APJ receptor) [nM] | EC50 Human APJ Receptor (GTPγS assay) (human APJ receptor) [nM] | Binder
73 | 33.6 | Tridecanoyl-[AC4Abu][AEEA][AEEA][dQ][hArg]P[dR][Cha]SHKG[Oic][Nle]P[Gly(cPent)]-OH (SMILES CCCCCCCCCCCCC(=O)NCCC(C(=O)O)C(=O)NCCOCCOCC(=O)NCCOCCOCC(=O)N[C@H](CCC(N)=O)C(=O)N[C@@H](CCCCNC(=N)N)C(=O)N1CCC[C@H]1C(=O)N[C@H](CCCNC(=N)N)C(=O)N[C@@H](CC1CCCCC1)C(=O)N[C@@H](CO)C(=O)N[C@@H](Cc1c[nH]cn1)C(=O)N[C@@H](CCCCN)C(=O)NCC(=O)N1[C@H](C(=O)N[C@@H](CCCC)C(=O)N2CCC[C@H]2C(=O)N[C@H](C(=O)O)C2CCCC2)C[C@@H]2CCCC[C@@H]21) [Apelin polypeptide SEQ ID NO: 406]
3.96 | 3.27 | Tridecanoyl-[γGlu][AEEA][AEEA][dQ][hArg]P[dR][Cha]SHKG[Oic][Nle]P[Phe(4-Cl)]-OH [Apelin polypeptide SEQ ID NO: 363]
42 | 25.9 | Tridecanoyl-[γGlu][AEEA][AEEA][dQ][hArg]P[dR][Cha]SHKG[Oic][Nle]P[D‑4IF]-OH [Apelin polypeptide SEQ ID NO: 369]
23.6 | 17.1 | Tridecanoyl-[γGlu][AEEA][AEEA][dQ][hArg]P[dR][Cha]SHKG[Oic][Nle]P[Aic]-OH [Apelin polypeptide SEQ ID NO: 366]
20.7 | 23 | Tridecanoyl-[γGlu][AEEA][AEEA][dQ][hArg]P[dR][Cha]SHKG[Oic][Nle]P[Oic]-OH [Apelin polypeptide SEQ ID NO: 365]
67.5 | 26.3 | Tridecanoyl-[γGlu][AEEA][AEEA][dQ][hArg]P[dR][Cha]SHKG[Oic][Nle]P[1Nal]-OH [Apelin polypeptide SEQ ID NO: 367]
31.4 | 32.3 | Tridecanoyl-[γGlu][AEEA][AEEA][dQ][hArg]P[dR][Cha]SHKG[Oic][Nle]P[2Nal]-OH [Apelin polypeptide SEQ ID NO: 368]
4.67 | 6.92 | Tridecanoyl-[γGlu][AEEA][AEEA][dQ][hArg]P[dR][Cha]SHK[Tle][Oic][Nle]P[Phe(4-Cl)]-OH [Apelin polypeptide SEQ ID NO: 371]
23.7 | 12.9 | Tridecanoyl-[γGlu][AEEA][AEEA][dQ][hArg]P[dR][Cha]SHKG[Oic][Nle]P[Bh4ClF]-OH [Apelin polypeptide SEQ ID NO: 370]
1.5 | 2.84 | Tridecanoyl-[γGlu][AEEA][AEEA][dQ][hArg]P[dR][Cha]SAKG[Oic][Nle]P[Phe(4-Cl)]-OH (SMILES CCCCCCCCCCCCC(=O)N[C@@H](CCC(=O)NCCOCCOCC(=O)NCCOCCOCC(=O)N[C@H](CCC(N)=O)C(=O)N[C@@H](CCCCNC(=N)N)C(=O)N1CCC[C@H]1C(=O)N[C@H](CCCNC(=N)N)C(=O)N[C@@H](CC1CCCCC1)C(=O)N[C@@H](CO)C(=O)N[C@@H](C)C(=O)N[C@@H](CCCCN)C(=O)NCC(=O)N1[C@H](C(=O)N[C@@H](CCCC)C(=O)N2CCC[C@H]2C(=O)N[C@@H](Cc2ccc(Cl)cc2)C(=O)O)C[C@@H]2CCCC[C@@H]21)C(=O)O) [Apelin polypeptide SEQ ID NO: 372]
20.4 | 6 | Tridecanoyl-[γGlu][AEEA][AEEA]Q[hArg]P[dR][Cha]SHKG[Oic][Nle]P[D‑4ClF]-OH [Apelin polypeptide SEQ ID NO: 364]
